Measured values taken from US10287572B2, “Protein scaffolds and methods of use” (REGENTS OF THE UNIVERSITY OF MINNESOTA, priority 2013, dated 2019).

Assays:
[1] = Circular dichroism thermal denaturation; format: physicochemical; details: ellipticity at 218 nm, 24-98 °C, PBS
Method: Purified tGp2 was lyophilized and resuspended in PBS to a concentration of 0.3-0.9 mg mL^−1. Ellipticity was measured from 260 to 200 nm on a Jasco J-815 spectrophotometer (Jasco, Inc., Easton, Md.) in a quartz cuvette with 1 mm path length. Thermal denaturation was carried out by measuring the ellipticity at 218 nm from 24° C. to 98° C. and Tm was calculated from a standard two-state unfolding curve.

EGFR = target: T1, EGFR (Homo sapiens, UniProt P00533); experiment: In vitro cell labeling with tGp2-EGFR-His6, flow cytometry; format: cell-based
T1 construct: endogenous in cells; host or cells: A431, MDA-MB-231, MCF7
Method: Cells were pelleted, washed with PBSA, and labeled with fluorescein-conjugated rabbit anti-His6 antibody for 15 minutes at 4° C. Cells were pelleted and washed, and analyzed on an Accuri C6 flow cytometer (BD Biosciences, San Jose, Calif.).
Cell lines were labeled as above with biotinylated tGp2-EGFR-His6. Except, Alexa Fluor 488-conjugated streptavidin was used as the secondary label.
Additionally, ligand specificity was examined through target blocking. […] Cells were pelleted, washed, and labeled with Alexa Fluor 488-conjugated streptavidin for 15 minutes. After washing, flow cytometry was used to compare fluorescence of blocked and unblocked samples.

soluble EGFR ectodomain = soluble EGFR ectodomain (Homo sapiens, UniProt P00533); experiment: Yeast-displayed Gp2 binding to soluble EGFR ectodomain; details: 1 nM soluble EGFR ectodomain
Method: The plasmid containing the clone of interest was transformed into yeast using the Frozen EZ Transformation Kit II (Zymo Research Corp., Irvine, Calif.), plated on SD medium plates and then grown directly in SG medium at 30° C. for at least 12 hours to induce protein expression. Cells were pelleted and washed with PBSA (phosphate buffered saline with 0.1% bovine serum albumin) and resuspended in PBSA containing biotin conjugated target over a range of concentrations. […] The samples were incubated at 22° C. for an appropriate amount of time to reach 90% of the approach to equilibrium. After incubation, cells were washed and labeled with mouse anti-c-myc antibody (clone 9E10) for 10-15 minutes, washed, and labeled with fluorescein-conjugated goat anti-mouse antibody and Alexa Fluor 647-conjugated streptavidin for 10-15 minutes. Yeast were washed and Alexa Fluor 647 fluorescence was analyzed on a FACSCalibur flow cytometer (BD Biosciences, San Jose, Calif.). The relative fraction bound for cells displaying tGp2 was determined by subtracting background fluorescence of an unlabeled control and normalizing to the maximum saturated signal at high concentrations. The equilibrium dissociation constant, KD, was identified as the concentration where half-maximal binding occurred.

rabbit IgG = experiment: Equilibrium competition titration of soluble tGp2, rabbit IgG; format: binding; details: soluble protein, read-out: Affinity (KD) of soluble tGp2
Method: Soluble affinity of select tGp2 proteins was determined using equilibrium competition titration, as described previously (Lipovsek et al., J Mol Biol, 2007, 368:1024-1041). Briefly, the soluble tGp2 clone was allowed sufficient time to reach 90% equilibrium with biotin-conjugated target over a range of tGp2 concentrations. Yeast cells displaying the same tGp2 clone and yeast cells harboring no plasmid (to aid in pelleting) were added to the solution, and allowed to equilibrate for six days. Cells were washed, labeled for target binding and analyzed with flow cytometry, as above.

Row | Substance | Melting temperature (Tm) by circular dichroism [1] | Binding to human cancer cell lines (EGFR; 0 or 1 μM Gp2 anti-EGFR, flow cytometry) | Blocking of labeled Gp2 binding by unlabeled Gp2 (EGFR; A431 cells, 1 μM unlabeled Gp2) | Kd (EGFR; A431 cells, His tag, anti-His6-FITC, flow cytometry, read-out: Affinity for A431 cells (average of two experiments)) | Binding of soluble EGFR ectodomain by displaying yeast (soluble EGFR ectodomain) | Kd (rabbit IgG)
1 | GaE 2.3.3: EGFR-specific tGp2 scaffold; loop 1 SRGDSYW (SEQ ID NO:2), loop 2 PMYHIYY (SEQ ID NO:3), frame mutation W45R (KFWATVSRGDSYWFEVPVYAETLDEALELAERQYPMYHIYYVTRVRP) | 81 °C | binds to human cancer cell lines in an EGFR-dependent manner | blocks binding of labeled Gp2 to A431 cells | 50 nM | effectively bind | 
2 | GaR 3.2.3: Rabbit IgG-binding tGp2 clone; loop 1 HSVHGY (SEQ ID NO:44), loop 2 GNALGY (SEQ ID NO:45), E44F, W45G (KFWATVHSVHGYFEVPVYAETLDEALELAFGQYGNALGYVTRVRP) | 80 °C |  |  |  |  | 1 nM
3 | tGp2 wild type: Truncated gene protein 2 of T7 phage, 5.2 kDa, 45 amino acids, SEQ ID NO:1 (KFWATVESSEHSFEVPVYAETLDEALELAEWQYYPAGFEVTRVRP; Enterobacteria phage T7) | 67 °C |  |  |  |  | 
